Experimental findings from article PMC10495444 are described below.

For test [1], the target named is mXkr4ΔC Q332E (aXkr4), constitutively active mutant, fused with monomeric EGFP (mouse). The test can be described thus: SEC + native gel or EMSA; whole lysate of transfected HEK293T cells in LMNG/GDN 1:1 loaded on Superdex Increase 200 10/300 GL (10 mM HEPES-NaOH pH 7.5, 150 mM NaCl, 0.01% LMNG/GDN, 10% glycerol, 1 mM CaCl2 or 0.5 mM EGTA); dimer fraction collected by EGFP fluorescence; then BN-PAGE with anti-V5 blot after 1 h at 4, 16, 25 or 37 °C.

The target of test [2] is mouse Xkr4 C-terminal cleaved form (mXkr4ΔC) fused with monomeric EGFP (mouse). Described as above.

What is called stoichiometry N is the number of molecules, sites or subunits per partner or assembly. As to “mXkr4ΔC Q332E (aXkr4), constitutively active mutant, fused with monomeric EGFP (domain or fragment)”, the stoichiometry N in test [1] worked out at 2.

For “mouse Xkr4 C-terminal cleaved form (mXkr4ΔC) fused with monomeric EGFP (domain or fragment)”, the stoichiometry N in test [2] turned out to be 2.
